Data set [1] has as its target ORF1p WT (111p) (UniProt Q9UN81). The data set can be described thus: optical tweezers (koff/kon). To be noted: 30 pN tension, 1 nM ORF1p; Binding buffer with 50 mM Na+ (pH and other components not in the material), 21 C (stated for m128p); 8.1 knt ssDNA held at 5-50 pN.
In data set [2] the target is m128p (CTD, RRM, 3.5 of 14 CC heptads) (UniProt Q9UN81). The data set can be described thus: optical tweezers (koff/kon). To be noted: Binding buffer with 50 mM Na+ (pH and other components not in the material), 21 C (stated for m128p); 8.1 knt ssDNA held at 5-50 pN.
In data set [3] the target is ORF1p WT (111p) (UniProt Q9UN81). The data set can be described thus: optical tweezers. To be noted: 30 pN; K* = compact and de-compact states equally occupied, not a simple Kd; Binding buffer with 50 mM Na+ (pH and other components not in the material), 21 C (stated for m128p); 8.1 knt ssDNA held at 5-50 pN.
Data set [4] addresses ORF1p WT (111p) (UniProt Q9UN81 1-338). Nature of the data set: confocal fluorescence with optical tweezers; 30 nM ORF1p bound to tethered 8.1 knt ssDNA (ternary complex), 10 and 30 pN; Binding buffer with 50 mM Na+ (pH and other components not in the material), 21 C (stated for m128p); 8.1 knt ssDNA held at 5-50 pN. To be noted: protein: recombinant; tags: N-terminal His; chain copies: 3; label: 5' Alexa488; single strand.

The source of these data is PMC11662928, “L1-ORF1p nucleoprotein can rapidly assume distinct conformations and simultaneously bind more than one nucleic acid”.

Chain of ORF1p WT (111p) (UniProt Q9UN81) (Q9UN81 whole entry): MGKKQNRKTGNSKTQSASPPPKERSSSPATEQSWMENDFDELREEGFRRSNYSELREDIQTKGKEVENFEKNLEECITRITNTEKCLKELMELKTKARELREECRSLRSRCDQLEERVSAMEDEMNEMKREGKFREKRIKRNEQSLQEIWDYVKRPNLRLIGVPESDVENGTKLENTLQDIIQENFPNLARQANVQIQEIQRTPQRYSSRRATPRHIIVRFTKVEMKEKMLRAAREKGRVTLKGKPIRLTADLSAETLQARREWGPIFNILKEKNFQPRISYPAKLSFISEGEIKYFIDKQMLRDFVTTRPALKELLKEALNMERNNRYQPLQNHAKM
Chain of ORF1p WT (111p) (UniProt Q9UN81 1-338) (Q9UN81 whole entry): as above
Chain of m128p (CTD, RRM, 3.5 of 14 CC heptads) (Q9UN81 128-338): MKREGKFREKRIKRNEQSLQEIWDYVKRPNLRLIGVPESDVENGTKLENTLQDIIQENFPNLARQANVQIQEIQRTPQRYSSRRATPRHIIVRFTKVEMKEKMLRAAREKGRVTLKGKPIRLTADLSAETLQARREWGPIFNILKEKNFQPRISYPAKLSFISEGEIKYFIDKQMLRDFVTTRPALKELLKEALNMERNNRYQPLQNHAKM

As to 8.1 knt ssDNA, the Kd (as a rule, a measure of binding affinity in units of concentration) with ORF1p WT (111p) [1] turned out to be 0.17 nM; in data set [2], 1.6 nM. The molecule further yielded a K half with ORF1p WT (111p) [3] of 2.8 nM.

B1: Alexa488-dT20 (ssDNA)
DNA: TTTTTTTTTTTTTTTTTTTT
On to B1, for which, in the data set with ORF1p WT (111p) [4], the binding result is “binds”.
